Test results taken from paper PMC8385704.

biological target: ACE2-Fc fusion protein (extracellular domain of human ACE2 and the Fc region of human IgG1) (human) (UniProt Q9BYF1); experiment: ELISA

Substance | EC50 [nM]
recombinant S1-subunit or RBD of SARS-CoV-2 variant P.1 (domain or fragment) | 14.9
recombinant S1-subunit or RBD of SARS-CoV-2 variant B.1.351 (domain or fragment) | 6.9
recombinant S1-subunit or RBD of SARS-CoV-2-D614G (domain or fragment) | 2.6
recombinant S1-subunit or RBD of SARS-CoV-2 variant B.1.617.1 (domain or fragment) | 51.3
recombinant S1-subunit or RBD of SARS-CoV-2 variant B.1.1.7 (domain or fragment) | 0.8
